In paper doi:10.1101/2023.07.12.548668:

B1: 30mer AT-rich DNA (dsDNA)
DNA 1: GAAGTAAAATTAAAAAAACAAAAAGAAGCT
DNA 2: AGCTTCTTTTTGTTTTTTTAATTTTACTTC
B2: 30mer DNA (random) (dsDNA)
DNA 1: GATCCCTCTAGATATCGGGCCCTCGATCCG
DNA 2: CGGATCGAGGGCCCGATATCTAGAGGGATC
B3: 30mer GC-rich DNA (dsDNA)
DNA 1: TACCGGGGCGCGAGCCCAGCGCTCCTCCCA
DNA 2: TGGGAGGAGCGCTGGGCTCGCGCCCCGGTA

biological target: XLF (UniProt Q9H9Q4 1-299); experiment: NMR titration (2D lineshape, TITAN); apparent KD; NMR buffer (composition, salt and pH not in material); 800 MHz, 298 K stated for relaxation measurements; EMSA buffer not given; settings: protein: recombinant; tags: N-terminal 6xHis-TEV; chain copies: 2; blunt
Sequence (Q9H9Q4 whole entry): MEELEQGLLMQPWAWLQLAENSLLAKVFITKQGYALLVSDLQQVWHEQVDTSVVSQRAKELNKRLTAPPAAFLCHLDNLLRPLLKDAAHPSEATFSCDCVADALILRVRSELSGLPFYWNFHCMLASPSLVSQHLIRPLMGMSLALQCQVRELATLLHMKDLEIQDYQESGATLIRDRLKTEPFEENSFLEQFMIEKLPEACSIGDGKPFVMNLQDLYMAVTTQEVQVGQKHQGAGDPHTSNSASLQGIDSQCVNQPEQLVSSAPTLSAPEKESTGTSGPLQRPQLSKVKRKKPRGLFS

**Q.** B1 was tested. Which Kd did it give?
**A.** Its Kd is 4.3 ± 0.42 µM.

**Q.** B2 was tested. Which Kd did it give?
**A.** Its Kd is 14.3 ± 0.9 µM.

**Q.** Which Kd does the source give for B3 here?
**A.** The Kd was 6.39 ± 0.81 µM.
